# EP2468858B1
# Biological target: FGF-21 receptor on differentiated 3T3-L1 fat cells (mouse)
# Assay: cell-based or functional assay
substance,measurement,value
recombinant human FGF-21 (from Chongqing Fagen Biomedical Inc.) (from UniProt Q9NSA1 29-209) (ligand),Glucose uptake CPM of 3T3-L1 fat cells at 0 nM protein (baseline),1880 CPM
same,Glucose uptake CPM of 3T3-L1 fat cells at 0.03 nM protein,1800 CPM
same,Glucose uptake CPM of 3T3-L1 fat cells at 0.15 nM protein,2110 CPM
same,Glucose uptake CPM of 3T3-L1 fat cells at 0.8 nM protein,2200 CPM
same,Glucose uptake CPM of 3T3-L1 fat cells at 4 nM protein,3300 CPM
same,Glucose uptake CPM of 3T3-L1 fat cells at 20 nM protein,5130 CPM
same,Glucose uptake CPM of 3T3-L1 fat cells at 100 nM protein,5320 CPM
